{
  "source": "paper doi:10.1101/2023.01.06.522972",
  "about": "(2023)",
  "binders": {"B1": {"name": "Leishmania major profilin, wild type (natural protein)", "chain": "SWQAYVDDSLIGSGNMHSAAIIGAADGSYWAYGGSYVPQPEEVQHIQKCLSDFSFVQSSGVNIYGVKFFGLQCGTDGDCKYIFFKKGAAGGCIYTTKQAFIVAVYGNPGDTSSLQQDLEKNTAHAVTVNPADCNTTVKRIADYLIKLGY"}},
  "target": "Leishmania major actin (Leishmania major, UniProt P45520 2-376)",
  "sequence (P45520 2-376)": "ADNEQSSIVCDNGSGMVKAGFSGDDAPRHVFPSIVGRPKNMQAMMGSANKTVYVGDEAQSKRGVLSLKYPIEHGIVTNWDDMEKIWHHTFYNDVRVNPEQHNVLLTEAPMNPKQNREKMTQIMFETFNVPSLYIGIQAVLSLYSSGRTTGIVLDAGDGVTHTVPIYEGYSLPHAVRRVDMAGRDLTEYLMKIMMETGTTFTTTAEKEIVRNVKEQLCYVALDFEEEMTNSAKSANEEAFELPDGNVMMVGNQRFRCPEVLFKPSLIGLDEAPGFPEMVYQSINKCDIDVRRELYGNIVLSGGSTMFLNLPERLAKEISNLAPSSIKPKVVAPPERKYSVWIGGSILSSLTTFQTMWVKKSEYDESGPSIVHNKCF",
  "assay": "ITC; ATP-actin",
  "data": [
    {"binder": "B1", "values": [
      {"measurement": "Kd", "value": 71.8, "unit": "nM"}
    ]}
  ]
}
